According to article PMC10397247:

T1: O8-bH
T1 chain: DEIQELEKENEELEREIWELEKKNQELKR

T2: O9-bH
T2 chain: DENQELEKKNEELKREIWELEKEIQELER

T3: 4H3843-bH
T3 chain: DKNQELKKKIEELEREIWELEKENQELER

T4: 4H3855-bA
T4 chain: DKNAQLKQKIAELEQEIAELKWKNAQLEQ

T5: 4H4001-bH
T5 chain: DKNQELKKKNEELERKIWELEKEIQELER

T6: 4H462-bH
T6 chain: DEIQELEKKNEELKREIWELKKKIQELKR

T7: 4H568-bH
T7 chain: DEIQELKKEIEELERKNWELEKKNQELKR

T8: 4H607-bH
T8 chain: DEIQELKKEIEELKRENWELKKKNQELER

T9: 4H687-bH
T9 chain: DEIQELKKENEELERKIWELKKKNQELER

T10: 4H72-bH
T10 chain: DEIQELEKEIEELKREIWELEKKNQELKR

T11: 4H797-bH
T11 chain: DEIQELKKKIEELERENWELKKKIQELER

T12: 4H883-bH
T12 chain: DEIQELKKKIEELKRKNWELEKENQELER

T13: 4H918-bH
T13 chain: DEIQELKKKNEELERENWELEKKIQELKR

T14: 4H953-bH
T14 chain: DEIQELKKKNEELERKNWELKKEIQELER

T15: 4H967-bH
T15 chain: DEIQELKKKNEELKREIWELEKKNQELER

T16: 4H3782-bH
T16 chain: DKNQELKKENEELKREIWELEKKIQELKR

T17: 4H3855-bH
T17 chain: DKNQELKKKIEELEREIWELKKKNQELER

T18: 4H454-bH
T18 chain: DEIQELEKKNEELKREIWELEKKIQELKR

T19: 4H717-bH
T19 chain: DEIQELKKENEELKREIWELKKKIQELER

T20: 4H754-bH
T20 chain: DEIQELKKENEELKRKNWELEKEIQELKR

T21: 4H908-bH
T21 chain: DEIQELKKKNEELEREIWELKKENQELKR

T22: 4H3134-AA
T22 chain: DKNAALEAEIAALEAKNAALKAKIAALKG

T23: 4H3409-AA
T23 chain: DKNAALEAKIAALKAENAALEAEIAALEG

T24: 4H3625-AA
T24 chain: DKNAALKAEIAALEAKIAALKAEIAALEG

T25: 4H390-AA
T25 chain: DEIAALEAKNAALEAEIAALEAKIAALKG

T26: 4H3940-AA
T26 chain: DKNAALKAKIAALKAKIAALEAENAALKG

T27: 4H510-AA
T27 chain: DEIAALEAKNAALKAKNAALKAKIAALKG

T28: 4H775-AA
T28 chain: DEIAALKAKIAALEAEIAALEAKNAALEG

T29: 4H816-AA
T29 chain: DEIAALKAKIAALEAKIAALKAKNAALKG

T30: 4H87-AA
T30 chain: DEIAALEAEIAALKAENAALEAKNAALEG


What was measured:
O8-bH = molecular target: T1, O8-bH; experiment: two-hybrid library CCNG1;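 also: natural log of median RNA to DNA barcode read ratio; higher means stronger binding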
O9-bH = molecular target: T2, O9-bH; experiment: two-hybrid library CCNG1;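 also: natural log of median RNA to DNA barcode read ratio; higher means stronger binding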
4H3843-bH = molecular target: T3, 4H3843-bH; experiment: two-hybrid library CCNG1;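 also: natural log of median RNA to DNA barcode read ratio; higher means stronger binding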
4H3855-bA = molecular target: T4, 4H3855-bA; experiment: two-hybrid library CCNG1;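 also: natural log of median RNA to DNA barcode read ratio; higher means stronger binding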
4H4001-bH = molecular target: T5, 4H4001-bH; experiment: two-hybrid library CCNG1;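 also: natural log of median RNA to DNA barcode read ratio; higher means stronger binding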
4H462-bH = molecular target: T6, 4H462-bH; experiment: two-hybrid library CCNG1;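 also: natural log of median RNA to DNA barcode read ratio; higher means stronger binding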
4H568-bH = molecular target: T7, 4H568-bH; experiment: two-hybrid library CCNG1
4H607-bH = molecular target: T8, 4H607-bH; experiment: two-hybrid library CCNG1
4H687-bH = molecular target: T9, 4H687-bH; experiment: two-hybrid library CCNG1
4H72-bH = molecular target: T10, 4H72-bH; experiment: two-hybrid library CCNG1
4H797-bH = molecular target: T11, 4H797-bH; experiment: two-hybrid library CCNG1
4H883-bH = molecular target: T12, 4H883-bH; experiment: two-hybrid library CCNG1
4H918-bH = molecular target: T13, 4H918-bH; experiment: two-hybrid library CCNG1
4H953-bH = molecular target: T14, 4H953-bH; experiment: two-hybrid library CCNG1
4H967-bH = molecular target: T15, 4H967-bH; experiment: two-hybrid library CCNG1
4H3782-bH = molecular target: T16, 4H3782-bH; experiment: two-hybrid library CCNG1
4H3855-bH = molecular target: T17, 4H3855-bH; experiment: two-hybrid library CCNG1
4H454-bH = molecular target: T18, 4H454-bH; experiment: two-hybrid library CCNG1
4H717-bH = molecular target: T19, 4H717-bH; experiment: two-hybrid library CCNG1
4H754-bH = molecular target: T20, 4H754-bH; experiment: two-hybrid library CCNG1
4H908-bH = molecular target: T21, 4H908-bH; experiment: two-hybrid library CCNG1
4H3134-AA = molecular target: T22, 4H3134-AA; experiment: two-hybrid library CCmax
4H3409-AA = molecular target: T23, 4H3409-AA; experiment: two-hybrid library CCmax; conditions: mean of both orientations
4H3625-AA = molecular target: T24, 4H3625-AA; experiment: two-hybrid library CCmax; conditions: mean of both orientations
4H390-AA = molecular target: T25, 4H390-AA; experiment: two-hybrid library CCmax; conditions: mean of both orientations
4H3940-AA = molecular target: T26, 4H3940-AA; experiment: two-hybrid library CCmax; conditions: mean of both orientations
4H510-AA = molecular target: T27, 4H510-AA; experiment: two-hybrid library CCmax; conditions: mean of both orientations
4H775-AA = molecular target: T28, 4H775-AA; experiment: two-hybrid library CCmax; conditions: mean of both orientations
4H816-AA = molecular target: T29, 4H816-AA; experiment: two-hybrid library CCmax; conditions: mean of both orientations
4H87-AA = molecular target: T30, 4H87-AA; experiment: two-hybrid library CCmax; conditions: mean of both orientations

interaction score (4H3843-bH)	interaction score (4H4001-bH)	interaction score (4H462-bH)	interaction score (4H568-bH)	interaction score (4H607-bH)	interaction score (4H687-bH)	interaction score (4H72-bH)	interaction score (4H797-bH)	interaction score (4H883-bH)	interaction score (4H918-bH)	interaction score (4H953-bH)	interaction score (4H967-bH)	Binder	also measured
												DEIQELEKENEELEREIWELEKKNQELKR [O8-bH]	interaction score (O8-bH): 0.991; interaction score (O9-bH): 0.486
-0.634	-0.099	-0.193	-1.1	-2.13	-0.585	-0.557	-0.437	-0.346	-2.64	-0.885	-0.0277	DKNQELKKKIEELEREIWELEKENQELER [4H3843-bH]	interaction score (4H3855-bA): 1.29
0.943	0.67	1.71	0.164	0.717	0.418	1.04	-0.446	-0.532	-0.854	-0.497	-0.136	DKNQELKKENEELKREIWELEKKIQELKR [4H3782-bH]	interaction score (4H3782-bH): 0.738; interaction score (4H3855-bH): 0.0378; interaction score (4H454-bH): 1.75; interaction score (4H717-bH): 0.481; interaction score (4H754-bH): 0.775; interaction score (4H908-bH): -1.78
												DKNAALEAEIAALEAKNAALKAKIAALKG [4H3134-AA]	interaction score (4H3134-AA): -0.475; interaction score (4H3409-AA): 1.96; interaction score (4H3625-AA): -0.878; interaction score (4H390-AA): -0.0241; interaction score (4H3940-AA): -1.19; interaction score (4H510-AA): -2.21; interaction score (4H775-AA): -0.634; interaction score (4H816-AA): -0.115; interaction score (4H87-AA): -0.703
